Test results reported in patent publication US20070160576A1, “IL-17A/F heterologous polypeptides and therapeutic uses thereof” (Genentech, Inc., priority 2001, published 2007).
“Also recorded” adds a separate entry of the source.

Key:
TK-10 cells = test: IL-8 and IL-6 production in TK-10 cells (ELISA of conditioned media); format: cell-based, human; settings: for IL-8 production: IL-8 ELISA
Experimental: Fractions were tested by incubation with TK-10 cells for 24 hours (0.033 microliters fraction/ml of cell culture media). Conditioned media was then collected and IL-8 and IL-6 concentration measurements were performed on each fraction by ELISA. […] Gels, blots, amino acid sequence and activity assays were run on this fraction (FIG. 3). Alternatively, fraction 31 and the remaining volume of fraction 32, from the HiLoad S Sepharose run were pooled and dialyzed against Buffer A for eight hours using a 10 kD cutoff membrane and passed through a 0.2 micron filter. […] Fractions 26-43 were assayed and protein concentrations were determined by amino acid analysis. Pure IL-17A/F was identified in fractions 31-33 as a single protein with apparent molecular mass of 30-35 kD. The concentrations of fractions 31, 32 and 33 were 0.258, 0.359 and 0.291 mg/ml respectively.
IL-17A/F, IL-17 and IL-17F were incubated with TK-10 cells at the indicated concentrations for 24 hours.
TK-10 conditioned media was collected and analyzed by IL-8 ELISA and IL-6 ELISA.

[1] = target: human IL-17 receptor (IL-17R, PRO1) (Homo sapiens, UniProt Q96F46); test: Receptor/ligand interaction screening assay (immunoadhesin); format: binding
Experimental: In general, the assay is performed as follows. A PRO polypeptide of the present invention suspected of being a ligand for a receptor is expressed as a fusion protein containing the Fc domain of human IgG (an immunoadhesin). Receptor-ligand binding is detected by allowing interaction of the immunoadhesin polypeptide with cells (e.g. Cos cells) expressing candidate PRO polypeptide receptors and visualization of bound immunoadhesin with fluorescent reagents directed toward the Fc fusion domain and examination by microscope. Cells expressing candidate receptors are produced by transient transfection, in parallel, of defined subsets of a library of cDNA expression vectors encoding PRO polypeptides that may function as receptor molecules. Cells are then incubated for 1 hour in the presence of the PRO polypeptide immunoadhesin being tested for possible receptor binding. The cells are then washed and fixed with paraformaldehyde. The cells are then incubated with fluorescent conjugated antibody directed against the Fc portion of the PRO polypeptide immunoadhesin (e.g. FITC conjugated goat anti-human-Fc antibody). The cells are then washed again and examined by microscope. A positive interaction is judged by the presence of fluorescent labeling of cells transfected with cDNA encoding a particular PRO polypeptide receptor or pool of receptors and an absence of similar fluorescent labeling of similarly prepared cells that have been transfected with other cDNA or pools of cDNA. If a defined pool of cDNA expression vectors is judged to be positive for interaction with a PRO polypeptide immunoadhesin, the individual cDNA species that comprise the pool are tested individually (the pool is “broken down”) to determine the specific cDNA that encodes a receptor able to interact with the PRO polypeptide immunoadhesin.
In another embodiment of this assay, an epitope-tagged potential ligand PRO polypeptide (e.g., 8 histidine “His” tag) is allowed to interact with a panel of potential receptor PRO polypeptide molecules that have been expressed as fusions with the Fc domain of human IgG (immunoadhesins). Following a 1 hour co-incubation with the epitope tagged PRO polypeptide, the candidate receptors are each immunoprecipitated with protein A beads and the beads are washed. Potential ligand interaction is determined by Western blot analysis of the immunoprecipitated complexes with antibody directed towards the epitope tag. An interaction is judged to occur if a band of the anticipated molecular weight of the epitope tagged protein is observed in the Western blot analysis with a candidate receptor, but is not observed to occur with the other members of the panel of potential receptors.

IL-17R [2] = target: T1, IL-17R (Homo sapiens, UniProt Q96F46); test: SPR (BIAcore) binding measurements
T1 construct: the extracellular domains (ECDs) of either of the two receptors IL-17R (designated PRO1) and IL-17RH1 (PRO5801)
Experimental: (§1) The kinetics and affinity of IL-17, IL-17E (PRO10272), or IL-17F (PRO20110) binding to IL-17R or IL-17RH1 (PRO5801) were determined by SPR measurements on a Pharmacia BIAcore 1000 instrument (Phamacia Biosensor, Piscataway N.J.). IL-17 ligand or receptor was immobilized onto a flow cell of a CM5 sensor chip via random coupling to amino groups, N-hydroxysuccinimide chemistry, by using a protocol developed by the manufacturer. An immobilization level of about 500 resonance units (RU) was obtained for IL-17R, IL-17RH1, and IL-17F, whereas IL-17 and IL-17E immobilization levels were 1200 and 1500 RU, respectively. A strong signal was obtained for IL-17R binding to immobilized IL-17. […] After blocking unreacted sites with ethanolamine, binding measurements were performed using a flow rate of 25 ┘L/min. Sensorgrams-were obtained for a series of six, two-fold serially diluted protein solutions. The highest concentration used was 1000 or 500 nM protein and the solutions were prepared in the running buffer, PBS containing 0.05% Tween-20. The sensor chip surface was regenerated between binding cycles by injection of a 25 ┘L aliquot of 0.1 M acetic acid, 0.2 M NaCl, pH 3 to elute non-covalent bound protein. Sensorgrams were evaluated according to a 1:1 binding model by non-linear regression analysis using software supplied by the manufacturer. In separate experiments to measure competition between IL-17 variants for binding receptors, a fixed concentration of receptor was incubated with a varied concentration of IL-17 protein followed by injection of this mixture onto a flow cell having immobilized IL-17 protein. The amount of bound receptor was determined from the resonance signal obtained after completion of the association phase.

IL-17RH1 (PRO5801) = target: T2, IL-17RH1 (PRO5801) (Homo sapiens, UniProt Q9NRM6); test: SPR (BIAcore) binding measurements
T2 construct: the extracellular domains (ECDs) of either of the two receptors IL-17R (designated PRO1) and IL-17RH1 (PRO5801)
T2 sequence (Q9NRM6 18-292 limits assumed): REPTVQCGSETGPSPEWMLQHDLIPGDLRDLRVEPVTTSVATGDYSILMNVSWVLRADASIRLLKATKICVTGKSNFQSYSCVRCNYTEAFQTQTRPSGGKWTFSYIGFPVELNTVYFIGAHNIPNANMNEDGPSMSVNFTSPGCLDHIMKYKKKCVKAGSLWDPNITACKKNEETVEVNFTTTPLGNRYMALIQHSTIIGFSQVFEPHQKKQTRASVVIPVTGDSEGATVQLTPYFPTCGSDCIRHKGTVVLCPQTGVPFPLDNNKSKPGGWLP
Experimental: as §1

IL-17R [3] = target: T1, IL-17R; test: SPR competition for receptor binding to immobilized IL-17; settings: IL-17R 500 nM; IL-17F at 2 ┘M
Experimental: as §1, with “The sensor chip surface was regenerated between binding cycles by injection of a 25 ┘L aliquot of 0.1 M acetic acid, 0.2 M NaCl, pH 3 to elute non-covalent bound protein.” left out, “In separate experiments to measure competition between IL-17 variants for binding receptors, a fixed concentration of receptor was incubated with a varied concentration of IL-17 protein followed by injection of this mixture onto a flow cell having immobilized IL-17 protein.” left out, “phase. […]” for “phase.”

Substance | IL-8 production (TK-10 cells; TK-10 cells, 24 hours) | binding to human IL-17 receptor (IL-17R, PRO1) [1] | SPR signal for binding to immobilized IL-17R (IL-17R [2]; IL-17R immobilized) | SPR binding to IL-17R (in words) (IL-17R [2]; IL-17R in solution, cytokine immobilized) | Koff × 10^4 (IL-17R [2]; immobilized IL-17, ligand IL-17R, value is Koff × 10^4) [s^−1] | Kon × 10^−5 (IL-17R [2]; immobilized IL-17, ligand IL-17R, value is Kon × 10^−5) [M^−1 s^−1] | SPR binding to IL-17RH1 (in words) (IL-17RH1 (PRO5801)) | competition for binding of IL-17R to immobilized IL-17 (IL-17R [3]) | difference in activity (potency) from IL-17 and IL-17F (TK-10 cells; IL-8 induction in TK-10 cells, greater activity than IL-17F) | IL-6 production (TK-10 cells; TK-10 cells, 24 hours, IL-6 ELISA) | IL-8 production (TK-10 cells; TK-10 cells, 24 hours, listed as Fraction 38)
IL-17: human IL-17 cytokine, SEQ ID NO:3 | production of IL-8 | binds to | weak signal | strong signal; also recorded: modest binding affinity | 6.7 | 0.093 | no binding was observed | efficiently block binding |  |  | 
IL-17A/F: novel human cytokine, covalent heterodimer of one IL-17 chain and one IL-17F chain | robustly induced IL-8 production; also recorded: induce IL-8 production; also recorded: potent IL-8 inducing activity |  |  |  |  |  |  |  | roughly an order of magnitude | induced production of IL-6 | robust activity
